According to article PMC5353646, “Allosteric modulation of peroxisomal membrane protein recognition by farnesylation of the peroxisomal import receptor PEX19” (Nature Communications, 2017):
Entries after “also recorded” stand apart in the source; their conditions may differ.

Experiments:
[1] = tested on: PEX19-deficient human fibroblasts (ΔPEX19 T); experiment: Functional complementation of PEX19-deficient fibroblasts (peroxisomal protein import); assay type: cell-based; conditions: full-length PEX19 variants, 72 h after transfection; for cells showing restored peroxisomal protein transport (functional complementation): at least 100 cells in three independent transfections, series of Fig. 3c
Source text: A bicistronic expression plasmid coding for eGFP-PTS1 and non-tagged PEX14 (pMF1220)[43] was kindly provided by Marc Fransen (Leuven, Belgium). pIRES2-HsPEX19-eGFP-PTS1 was constructed by replacing the open reading frame of PEX14 (BglII/SalI) with a DNA-cassette encoding the full-length open reading frame of human PEX19 as derived from BamHI/SalI digestion of pAH05 (ref. [44]). Single point mutations were introduced into the PEX19 sequence by Quickchange XL Site-directed Mutagenesis kit (Stratagene) using primer pairs (Supplementary Table 1). The bicistronic expression vectors coding for PEX19 variants and eGFP-PTS1 were transfected into the human cell-line ΔPEX19 T which was derived from PEX19-deficient Zellweger patient fibroblasts. ΔPEX19 T cells, characterized by a defect in peroxisome biogenesis were routinely authenticated by functional complementation assays as described below and checked for mycoplasma contamination using Venor GeM Advance Mycoplasm Detection Kit (Minerva Biolabs). The efficiency of transfection according to the Amaxa Cell Line Nucleofector Kit R protocol (Lonza Cologne AG) was always around 90%. After 72 h of transfection, cells were subjected to fluorescence and immunofluorescence microscopy using polyclonal antiserum against human PEX14 (ref. [45]) (1:400 diluted) or monoclonal antibodies against human PEX19 (BD Biosciences, MA5-17266 Thermo Scientific; 1:400 diluted). Statistical analysis was carried out from three independent transfections of each pIRES-PEX19-eGFP-PTS1 expression plasmid. Based on the appearance of eGFP-PTS1 fluorescence pattern, about 100 cells of each experiment were visually categorized into three classes, (i) full complementation of peroxisomal import as visualized by punctuate staining pattern, (ii) partial complementation as indicated by diffuse cytosolic staining with few dots, (iii) no complementation resulting in only cytosolic staining. All micrographs were recorded on a Zeiss Axioplan 2 microscope with a Zeiss Plan-Apochromat × 63/1.4 oil objective and an Axiocam MR digital camera, and were processed with AxioVision 4.6 software (Zeiss, Jena, Germany). The steady-state level of PEX19 expression was assessed by immunoblot analysis, using monoclonal mouse antibodies against HsPEX19 (BD Biosciences, MA5-17266; 1:1,000 diluted) (Supplementary Fig. 9).

[2] = tested on: PEX19-deficient human fibroblasts; experiment: Immunoblot analysis of PEX19 variants in transfected fibroblasts; assay type: cell-based
Source text: A bicistronic expression plasmid coding for eGFP-PTS1 and non-tagged PEX14 (pMF1220)[43] was kindly provided by Marc Fransen (Leuven, Belgium). pIRES2-HsPEX19-eGFP-PTS1 was constructed by replacing the open reading frame of PEX14 (BglII/SalI) with a DNA-cassette encoding the full-length open reading frame of human PEX19 as derived from BamHI/SalI digestion of pAH05 (ref. [44]). Single point mutations were introduced into the PEX19 sequence by Quickchange XL Site-directed Mutagenesis kit (Stratagene) using primer pairs (Supplementary Table 1). […] After 72 h of transfection, cells were subjected to fluorescence and immunofluorescence microscopy using polyclonal antiserum against human PEX14 (ref. [45]) (1:400 diluted) or monoclonal antibodies against human PEX19 (BD Biosciences, MA5-17266 Thermo Scientific; 1:400 diluted). […] Based on the appearance of eGFP-PTS1 fluorescence pattern, about 100 cells of each experiment were visually categorized into three classes, (i) full complementation of peroxisomal import as visualized by punctuate staining pattern, (ii) partial complementation as indicated by diffuse cytosolic staining with few dots, (iii) no complementation resulting in only cytosolic staining. […]

[3] = Hydrophobic interaction chromatography; assay type: physicochemical
Method: Purified PEX19 CTD and variants were adjusted to a buffer containing 650 mM (NH4)2SO4 and 500 μg protein was subjected to equilibrated Butyl Sepharose FF column (20 mM potassium phosphate, pH 6.5, 50 mM NaCl and 650 mM (NH4)2SO4). After washing, bound protein was eluted with linear decreasing (NH4)2SO4 concentrations (650–0 mM (NH4)2SO4, 20 ml). Eluted proteins were detected using 280 nm absorption. The binding strength is indicated by the elution volume and correlates with protein hydrophobicity.

[4] = Stability of purified protein in solution; assay type: physicochemical

Molecule | functional complementation (in words) [1] | cells showing restored peroxisomal protein transport (functional complementation) [1] | cells showing restored peroxisomal protein transport (functional complementation) ([1]; listed as C296S) | expression and farnesylation in vivo [2] | elution volume after start of the gradient ([3]; Butyl Sepharose FF, linear decreasing (NH4)2SO4 650–0 mM, 20 ml, 20 mM potassium phosphate, pH 6.5, 50 mM NaCl, 280 nm, 500 μg protein) | hydrophobic interaction chromatography, effect on hydrophobicity (in words) ([3]; farnesylated vs non-farnesylated, compared to wild type) | stability in solution after purification [4]
PEX19 C296S: full-length PEX19 variant which lacks the farnesylation site (protein, UniProt P40855 1-299, looked up, variant C296S, full-length) MAAAEEGCSVGAEADRELEELLESALDDFDKAKPSPAPPSTTTAPDASGPQKRSPGDTAKDALFASQEKFFQELFDSELASQATAEFEKAMKELAEEEPHLVEQFQKLSEAAGRVGSDMTSQQEFTSCLKETLSGLAKNATDLQNSSMSEEELTKAMEGLGMDEGDGEGNILPIMQSIMQNLLSKDVLYPSLKEITEKYPEWLQSHRESLPPEQFEKYQEQHSVMCKICEQFEAETPTDSETTQKARFEMVLDLMQQLQDLGHPPKELAGEMPPGLNFDLDALNLSGPPGASGEQSLIM | cannot fully restore PEX19 function | 46% | 50% | lacks the farnesylation site |  |  | 
M255R: PEX19 CTD variant M255R (helix α4) (protein, left off: His6, end not stated, cleaved) GMDEGDGEGNILPIMQSIMQNLLSKDVLYPSLKEITEKYPEWLQSHRESLPPEQFEKYQEQHSVMCKICEQFEAETPTDSETTQKARFEMVLDLRQQLQDLGHPPKELAGEMPPGLNFDLDALNLSGPPGASGEQCLIM | not capable of rescuing the ΔPEX19 phenotype; also recorded: completely abolishes PEX19 function |  |  |  | 5.00 mL | most pronounced effects | not stable for long time in solution
